In PMC314469, “Protein Interaction Networks by Proteome Peptide Scanning” (PLoS Biology, 2004):

T1: Myo5 SH3 (MYO5_YEAST), Q04439
T1 chain: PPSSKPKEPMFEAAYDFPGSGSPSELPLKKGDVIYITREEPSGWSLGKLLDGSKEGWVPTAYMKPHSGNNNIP


Target: T1, Myo5 SH3 (MYO5_YEAST), Q04439
Experiment: SPOT array

| Binder | normalised SPOT signal, Boehringer light units (BLU); mean over the file's lines of this peptide |
| --- | --- |
| GEFFHSSPNIPHYA [YLR244C 297-310] | 271 |
| FLYPYDDPNAPIDE [YCR079W 210-223] | 55.4 |
| ELYYLNDPKYPGTK [YGR154C 125-138] | 0 |
| FFNRYPNPYSPHVL [YLR193C 22-35] | 137 |
| FFTIWFIPLVPVFW [YBL029C-A 44-57] | 397 |
| FEDHHITPSKPGGQ [YDR451C 287-300] | 67.9 |
| FEMVFRHPEQPHMI [YBL088C 1519-1532] | 310 |
| FFPIMSLPVTPVKS [YER032W 46-59] | 122 |
| FEESMNNPLPPLPP [YDL117W 176-189] | 169 |
| GEIMFPAPPLPIAN [YDL172C 53-66] | 2770 |
| GETRWRIPYLPLDP [YOR108W 386-399] | 118 |
| FESFLRPPSTPDLP [YLR149C 637-650] | 70.2 |
| FLTVYILPKNPFRV [YGR293C 121-134] | 1470 |
| FAYSLGLPGAPKIK [YJL033W 477-490] | 75.8 |
| FLALFSDPARPFLT [YHL005C 61-74] | 452 |
| FPKKMGPPQWPFST [YHR199C 84-97] | 279 |
| EPIAHLFPPGPKNP [YEL031W 876-889] | 356 |
| EPATLPLPGTPTLA [YKR041W 168-181] | 61.8 |
| FFQLMQSPSLPLLM [YDR159W 429-442] | 830 |
| GARFLPAPHRPEKY [YGR154C 63-76] | 153 |
| FPFYLSFPFSPSFP [YLR198C 23-36] | 760 |
| GAPPLPVPNGPAVG [YPL190C 573-586] | 222 |
| EPEPLMSPVPPSSA [YMR313C 491-504] | 215 |
| FLSYMSEPKYPSNE [YJL029C 360-373] | 142 |
| ELRDLDIPLVPSPK [YLR131C 69-82] | 75.3 |

Next, values leading:

| normalised SPOT signal, Boehringer light units (BLU); mean over the file's lines of this peptide | Binder |
| --- | --- |
| 257 | FLRTMAQPTDPKDQ [YER171W 720-733] |
| 460 | FASQLRKPRAPMRN [YER141W 445-458] |
| 294 | ELRTLFVPLIPSVT [YLR454W 1338-1351] |
| 154 | FLPVFNLPSNPALF [YKL083W 42-55] |
| 146 | FARTLKIPNEPSPG [YKR038C 231-244] |
| 122 | FESTLPIPTYPREG [YEL070W 20-33] |
| 62.7 | EWPGLDPPYIPLDF [YLR308W 63-76] |
| 106 | GETQWRIPYLPLDP [YNL104C 387-400] |
| 170 | ELRKLVQPITPIIK [YGR062C 88-101] |
| 1340 | FLSRYPVPDLPIYL [YDR422C 770-783] |
| 87000 | EPPSWKPPDLPIRL [YIL156W 498-511] |
| 202 | FENLLMEPNLPFFT [YJR031C 942-955] |
| 121 | FEKRYYVPEDPSQD [YPR184W 1320-1333] |
| 722 | GESHYKPPSTPKIN [YFL034W 1020-1033] |
| 966 | FWKIHLSPPLPSFK [YGR018C 23-36] |
| 111 | GAGGLGSPALPYLA [YHR111W 74-87] |
| 6490 | FFFFHLSPSIPFWF [YDL196W 57-70] |
